Measurements as given in patent US20260116946A1, “NOVEL CD200 FUSION PROTEINS” (DUCENTIS BIOTHERAPEUTICS LIMITED, priority 2022, published 2026).

Assays:
[1] = system: cyno CD200R; assay: BIAcore SPR binding of CD200-Fc to cynomolgus CD200R; details: 25° C., mean of two runs
Excerpt: BIAcore instrumentation uses an optical method, Surface Plasmon Resonance (SPR), to measure the binding characteristics of two interacting molecules; in this case wild-type CD200-Fc or CD200-Fc mutants binding to the CD200 receptor (CD200R). The technique measures changes in the refractive index of one of the two interacting molecules captured on a chip (sensor) when the second molecule is flowed in solution over the captured partner. In these experiments CD200-Fc was immobilized on the chip (sensor) surface and CD200R was injected in an aqueous buffer over the captured CD200-Fc under continuous flow conditions. Changes in the CD200-Fc refractive index following CD200R binding were measured in real time and the result plotted as response units (RUs) versus time to generate sensorgrams.
The experiments were performed on a GE Healthcare BIAcore T200. […]
For mouse CD200 constructs, muCD200R-Fc (Creative Biomart CD200R1-458M) diluted to 1 μg/mL in running buffer was flowed over the immobilized Anti-Human IgG Fc, with CD200 monomers serially diluted and flowed over captured CD200R. […] Data analysis: experimental sensorgrams were analyzed in BIAevaluation software (GE Healthcare). […] Closeness of fit was determined by algorithms provided by the manufacturer in the BIAevaluation software, and data accepted if the Chi^2 value was less than 10% of Rmax, and the U value was less than or equal to 15.

[2] = PK study in serum of cynomolgus monkeys; assay type: in vivo; details: 5 mg/kg i.v. bolus; for AUC 0-t: t = 28 days
Procedure: 2 cynomolgus monkeys per group (one male, one female) were dosed at 5 mg/kg with an i.v. bolus of protein at time 0. Blood samples were taken for PK analysis at the following timepoints: pre-dose, 0.25 hr, 0.5 hr, 1 hr, 4 hr, 8 hr, 24 hr, day 3, day 5, day 7, day 10, day 12, day 14, day 21, day 28.
At least 0.8 mL blood samples were collected from a cephalic or saphenous vein at sampling time points from the two animals. For samples collected within the first hour of dosing, a ±1 minute deviation in sample collection time was acceptable. For the remaining time points, samples that were taken within 5% of the scheduled time are acceptable. All blood samples were collected into commercially available tubes containing coagulant. The tubes containing blood samples remained at room temperature for 30 minutes before centrifugation. The samples were centrifuged at 4° C. for 10 minutes at 1500×g within one hour of collection. About 400 μL serum per time point was collected post centrifugation. The samples were then quickly frozen over dry ice and kept at −60° C. or lower until transferred in dry ice for analysis. All samples were uniquely identified to indicate origin and collection time.
The concentrations of analyte in serum were determined using a bioanalytical ELISA method. 96-well ELISA plates were coated overnight at 4° C. with 1 μg/ml Goat anti-Human IgG in Carbonate-bicarbonate buffer. After wash and blocking, serial diluted plasma samples were added and then biotin labeled Goat anti-human IgG (0.0625 ug/mL) was used as detection antibody. HRP-Streptavidin and TMB substrate were used for colour development. The reaction was stopped after approximately 5-10 minutes through the addition of 2M HCl. The absorbance was read at 450 nm and 540 nm using a microplate spectrophotometer (SpectraMax® M5e). The OD value of the samples were substituted into the standard curve to obtain the plasma concentration. The detection limit of this ELISA method LLOQ for Fc+Fc is 1 ng/mL.
The serum concentration of ARQ-234 in monkeys was subjected to a non-compartmental pharmacokinetic analysis by using the Phoenix WinNonlin software (version 8.1, Pharsight, Mountain View, CA). The linear/log trapezoidal rule was applied in obtaining the PK parameters.

[3] = system: U937-CD200R cells; assay: Cytokine release (IL-6 inhibition) assay, LPS stimulated U937-CD200R cells; assay type: cell-based, human
Procedure: Cytokine production, including IL-6, from these cells can be induced by stimulation with PMA and then LPS.
50,000 U937 cells per well were seeded in 96 well plates and differentiated following incubation for 72 hours with 100 nM PMA. Following differentiation, the PMA containing media was replaced with fresh assay media and incubated for a further 2 hours prior to treatment. CD200-Fc constructs were added with or without Fc block to the cell culture and incubated for 1 hour, then cells were stimulated with 100 ng/ml LPS and incubated for a further 24 hours. Following the final incubation, cell supernatant (diluted 1:10) was collected and assayed for IL-6 secretion by ELISA assay using a commercially available kit.
Cell line construction, cytokine inhibition testing, and cell binding testing were conducted using similar techniques as in Example 3 above.

ARQ-234: mutated human CD200-Fc fusion protein: CD200 K130Y, I131Y directly fused to IgG4 Fc S228P, M428L, N434S
ka [1]: 159100 M⁻¹ s⁻¹ | kd [1]: 0.03997 s⁻¹ | average half-life in the two animals tested ([2]; serum): 15.44 days | Cl_obs ([2]; animal #3001 (M)): 7.45 mL/day/kg | MRTINF_obs ([2]; animal #3001 (M)): 17.3 days | Vss_obs ([2]; animal #3001 (M)): 0.129 L/kg | Cmax ([2]; animal #3001 (M), serum): 127 µg/mL | t1/2 ([2]; animal #3001 (M), serum): 12.4 days | AUC 0-t ([2]; animal #3001 (M)): 12927 µg·h/mL | Cl_obs ([2]; animal #3002 (F)): 6.56 mL/day/kg | MRTINF_obs ([2]; animal #3002 (F)): 25.3 days | Vss_obs ([2]; animal #3002 (F)): 0.166 L/kg | Cmax ([2]; animal #3002 (F), serum): 124 µg/mL | t1/2 (h) ([2]; animal #3002 (F), serum, footnote: half-life not accurate (AUC_%Extrap_obs >20% or Rsq_adjusted <0.9)): 443^ h | AUC 0-t ([2]; animal #3002 (F)): 12259 µg·h/mL | inhibition of LPS stimulated IL-6 release ([3]; PMA differentiated U937-CD200R cells, 100 ng/ml LPS, 24 hours, ELISA): able to inhibit LPS stimulated IL-6 secretion in a concentration dependent manner | effect of Fc block on inhibition of IL-6 release ([3]; with versus without Fc block reagent): No significant difference in inhibition
